Consider two molecules from patent publication US20150030603A1 (SAMSUNG ELECTRONICS, published 2015).

Assay [1] has as its target T1, recombinant hAng-2 (C-His, R&D Systems) (human, UniProt O15123 19-496).
T1 sequence: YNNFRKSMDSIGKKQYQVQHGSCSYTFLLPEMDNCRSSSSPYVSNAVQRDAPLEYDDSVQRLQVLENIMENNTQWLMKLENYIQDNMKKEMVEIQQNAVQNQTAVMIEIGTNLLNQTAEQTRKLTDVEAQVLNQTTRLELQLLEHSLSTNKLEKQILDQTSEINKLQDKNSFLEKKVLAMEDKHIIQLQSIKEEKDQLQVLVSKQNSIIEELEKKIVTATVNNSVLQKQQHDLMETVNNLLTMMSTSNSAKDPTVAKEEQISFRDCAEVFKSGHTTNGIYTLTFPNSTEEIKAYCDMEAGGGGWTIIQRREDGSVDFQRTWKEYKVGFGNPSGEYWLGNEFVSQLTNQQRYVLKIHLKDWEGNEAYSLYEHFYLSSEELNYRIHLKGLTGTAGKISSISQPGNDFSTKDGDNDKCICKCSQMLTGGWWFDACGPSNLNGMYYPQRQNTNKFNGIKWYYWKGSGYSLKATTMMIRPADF
Put plainly: cell-based or functional assay.

Assay [2] deals with FLAG-tagged Ang2 RBD mutant P419A (human) (UniProt O15123). Put plainly: ELISA; 10D6 coated (1000 nM), 250 ng FLAG-tagged Ang2 RBD mutant, anti-FLAG-HRP, OD450; reference native Ang2; cell may be cut off at the left.
Assay [3] deals with FLAG-tagged Ang2 RBD mutant Q418A (human) (UniProt O15123). Described as above.
Assay [4] has as its target FLAG-tagged Ang2 RBD mutant at A449 (substituted with alanine (so in the source)) (human) (UniProt O15123). The description is as above.
A further assay concerns the target T2, BSA (bovine, UniProt P02769).
T2 construct: commercial preparation (Sigma); named on the sheet under 'Coating:'; also called bovine serum albumin (Sigma); control coating
Put plainly: ELISA: coated BSA, FLAG-Ang2 0.25 µg/ml and 10D6 2 µg/ml, detected with anti-mouse IgG-HRP (OD450). Here is the method: A 96-well MaxiSorp™ flat-bottom plate (Nunc) was coated with 4 μg/ml of Tie2-Fc (R&D systems) or BSA (Sigma). Then, the plate was washed five times with 0.05% (v/v) Tween-20-containing PBS (Phosphate Buffer Saline) and blocked with 1% (v/v) BSA (Bovine serum albumin; Sigma)-containing PBS at a room temperature for 2 hours. 0.25 μg/ml of Ang2 and 2 μg/ml of 10D6 antibody were added to each well of the plate, which was allowed to react at a room temperature for 2 hours and then washed five times with PBST. After that, an anti-mouse IgG antibody (Sigma) conjugated with HRP diluted in 1% (v/v) BSA-containing PBS at a ratio of 1:5,000 (v/v) was added in an amount of 100 ul to each well to react at a room temperature for 1 hour and then, the plate was washed five times with PBST. Lastly, 100 ul (microliter) of TMB substrate (Cell Signaling) was added to each well of the plate to induce color development for 3 min. and then, the reaction was ceased by the addition of 100 ul of Stop solution (Cell Signaling) and OD450 values were measured on a plate reader (Molecular Devices).

T2 sequence (P02769 25-607 limits assumed): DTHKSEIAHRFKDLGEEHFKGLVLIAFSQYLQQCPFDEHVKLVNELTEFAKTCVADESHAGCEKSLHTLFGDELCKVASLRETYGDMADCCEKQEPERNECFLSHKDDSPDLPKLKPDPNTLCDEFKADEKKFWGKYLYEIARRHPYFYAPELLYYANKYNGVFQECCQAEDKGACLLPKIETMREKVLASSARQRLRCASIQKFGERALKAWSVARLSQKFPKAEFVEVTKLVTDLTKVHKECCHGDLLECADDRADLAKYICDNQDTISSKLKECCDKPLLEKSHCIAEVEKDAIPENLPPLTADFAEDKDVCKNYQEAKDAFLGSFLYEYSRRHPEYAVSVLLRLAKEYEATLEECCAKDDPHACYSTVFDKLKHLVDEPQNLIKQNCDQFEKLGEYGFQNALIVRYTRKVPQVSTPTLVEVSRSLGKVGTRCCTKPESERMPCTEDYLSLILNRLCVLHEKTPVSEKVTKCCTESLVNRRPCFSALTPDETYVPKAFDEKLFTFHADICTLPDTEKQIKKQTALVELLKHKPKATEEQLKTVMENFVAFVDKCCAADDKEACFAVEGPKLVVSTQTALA

B1: SAIT-ANG2-AB-m10D6 (antibody, V domains shown)
VH: DVQLQESGPGLVKPSQSLSLTCTVTGYSITSDYAWNWIRQFPGNKLEWMGYINYSGNTDYNPSLKSRSSITRDTSKNQFFLQLNSVTTGDTATYYCARGNFEGAMDYWGQGTSVTVSS
VL: SIVMTQTPKFLLVSAGDRVTITCKASQSVSNDVAWYQQKPGQSPKLLIYYASNRYPGVPDRFTGSGYGTDFTFTISTVQAEDLAVYFCQQDYSSPWTFGGGTKLEIK
As to B1, the “Tie2 phosphorylation effect against the control antibody RG” value in assay [1] was about 8.6 fold against RG antibody. The “Tie2 phosphorylation level (pTyr/Tie2 ratio) in HUVEC cells, 60 nM antibody with Ang2” value in assay [1] was 180 % increase against Ang2 alone. Moreover, the binding affinity (%) with mutant Ang2 against the binding affinity with the native Ang2 in assay [2] was determined as 1.08%; in assay [3], 8.94%; in assay [4], 7.86%.

B2: FLAG-tagged hAng-2 (ligand)
chain: YNNFRKSMDSIGKKQYQVQHGSCSYTFLLPEMDNCRSSSSPYVSNAVQRDAPLEYDDSVQRLQVLENIMENNTQWLMKLENYIQDNMKKEMVEIQQNAVQNQTAVMIEIGTNLLNQTAEQTRKLTDVEAQVLNQTTRLELQLLEHSLSTNKLEKQILDQTSEINKLQDKNSFLEKKVLAMEDKHIIQLQSIKEEKDQLQVLVSKQNSIIEELEKKIVTATVNNSVLQKQQHDLMETVNNLLTMMSTSNSAKDPTVAKEEQISFRDCAEVFKSGHTTNGIYTLTFPNSTEEIKAYCDMEAGGGGWTIIQRREDGSVDFQRTWKEYKVGFGNPSGEYWLGNEFVSQLTNQQRYVLKIHLKDWEGNEAYSLYEHFYLSSEELNYRIHLKGLTGTAGKISSISQPGNDFSTKDGDNDKCICKCSQMLTGGWWFDACGPSNLNGMYYPQRQNTNKFNGIKWYYWKGSGYSLKATTMMIRPADF
notes: not shown: FLAG tag
On to B2, for which the binding result with BSA is reported as “no binding (tested: 0.25 µg/ml)”.
